In patent publication US20080233118A1 (Novartis, published 2008):

Target: T1, human M-CSF (macrophage colony stimulating factor) (human, UniProt P09603 33-190, limits assumed)
T1 sequence: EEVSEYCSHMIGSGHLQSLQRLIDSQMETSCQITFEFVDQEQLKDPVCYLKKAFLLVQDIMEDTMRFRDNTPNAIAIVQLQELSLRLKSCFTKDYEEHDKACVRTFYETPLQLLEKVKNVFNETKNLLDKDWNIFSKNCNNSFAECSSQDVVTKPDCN
Assay: cell-based or functional assay

B1: M-CSF-specific murine antibody RX1 (antibody, V domains shown)
VH: DVQLQESGPGLVKPSQSLSLTCTVTDYSITSDYAWNWIRQFPGNKLEWMGYISYSGSTSYNPSLKSRISITRDTSKNQFFLQLNSVTTEDTATYYCASFDYAHAMDYWGQGTSVTVSS
VL: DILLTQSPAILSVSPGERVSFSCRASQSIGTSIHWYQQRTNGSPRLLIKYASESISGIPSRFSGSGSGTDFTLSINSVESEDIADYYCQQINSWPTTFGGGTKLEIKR
EC50 of M-CSF neutralization: 2 ng/mL
